The values below come from patent US5773694.

Assay [1] has as its target Ace-AMP1 (Allium cepa - Antimicrobial Protein 1), mature protein purified from Allium cepa seeds (Allium cepa).
In assay [2] the target is reduced and S-carboxyamidomethylated Ace-AMP1 (Allium cepa).

Substance Chymotrypsin (enzyme) came in with a Relative antifungal activity (% of control activity) after protease digestion (% of control activity) in assay [1] of 80.
Pronase E (enzyme) registered a Relative antifungal activity (% of control activity) after protease digestion (% of control activity) in assay [1] of 5.
In assay [1], Proteinase K (enzyme) came in with a Relative antifungal activity (% of control activity) after protease digestion (% of control activity) of 60.
Trypsin (enzyme): the Relative antifungal activity (% of control activity) after protease digestion (% of control activity) in assay [1] was determined as 90.
“endoproteinase Arg-C (sequencing grade, Boehringer) (enzyme)” yielded a peptides separated by RP-HPLC after digestion (separable peptides) in assay [2] of over 10.
Turning to “endoproteinase Asp-N (sequencing grade, Boehringer) (enzyme)”, the protein fragments separated by RP-HPLC after digestion (protein fragments) in assay [2] is 3.
